Data from the supplement of paper PMC9170038.

Tested on: K4 kissing-loop RNA reporter
Assay: apparent KD of K4 kissing-loop reporter; higher = weaker reporter binding
Settings: Eterna round: R107
Experimental: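 RNA-MaP round R107: designed RNA switches with theophylline, tryptophan, arginine or FMN aptamers are transcribed on-chip within common flanks. They are titrated with a labelled K4 kissing-loop RNA reporter in RNA-MaP buffer (100 mM Tris pH 7.5, 80 mM KCl, 4 mM MgCl2), without ligand or with the indicated ligand. Median apparent KD per design.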

[1] = input ligand: theophylline 20 uM
[2] = input ligand: tryptophan 2.4 mM
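Also: bound reporter read as fluorescence of individual clusters on recovered sequencing chips by microscopy, with normalized cluster intensities fitted with a binding model.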

Sequence | apparent KD of K4 kissing-loop reporter (input ligand: FMN 200 uM) | apparent KD of K4 kissing-loop reporter (input ligand: arginine 13.2 mM) | apparent KD of K4 kissing-loop reporter (input ligand: none) | apparent KD of K4 kissing-loop reporter [1] | apparent KD of K4 kissing-loop reporter [2]
UUGGAGUGAUGUUCCAUAUCUUGAGCCGAAGGAGCGGCAUUAUUGCCAGGUAGGUCGCGGCAGAAGGUACCAGUGAUGUUGGAAA [Same State Arginine A GF 4] | 136 nM | 138 nM | 151 nM | 126 nM | 125 nM
UUGGCUGGACGGGAUACCAGCCAAAUCGUGUGCUUAGGAUGUCUAAGAGCCAGUGAUGUUGGCCCUUGGCAGCCCUCCUAGCUUG [Ordigear] | 154 nM | 115 nM | 138 nM | 124 nM | 136 nM
UUGGCUGGACGGGAUACCAGCCAAAUCGUGUGCUUGGGAUGUCUAAGAGCCAGUGAUGUUGGCCCUUGGCAGCCCUCCCAGCUUG [Inontixe] | 124 nM | 88.6 nM | 97.1 nM | 134 nM | 98.4 nM
UUGUUUGGUUGAGAGGUUGGGCGAGAUGAUACCAGUAUAGUAUAGUACCCUUGGCAGCAUAGGAGAGAUAUAGUGAUGUUGUAUG [SSTheophA.V] | 424 nM | 288 nM | 493 nM | 372 nM | 373 nM
UUGUUUUACUGAAGGAGCGGCAAUUGAUACGUAGAUAUAGUGAUGUUAUAUAAGAUAGAGAGCCAGGUAGGUCGCAGAUGUGUUU [ExArgB.T] | 196 nM | 205 nM | 180 nM | 204 nM | 149 nM
UUUAAACAUAGUGAUGUUAUGUAACAAUGACGAGGACCGGUACGGCCGCCACUCGAGAGAGAUAAUGAUAAAAUAAAUAAUUUUC [#09 K4 Tryptophan A Same State] | 109 nM | 111 nM | 118 nM | 115 nM | 92.4 nM
UUUAUGAGGUCGGCCGCCACUGGAUUUAUGUUUGUUUCGUCUGGAUCAAAGUGAUGUUUUGAGUCCAGGACCGGGACAUUUGUUA [whbob_Ex_Tryp_B_w40] | 85.3 nM | 76.3 nM | 80.5 nM | 76.8 nM | 94 nM
UUUAUUAAGACGGCCGCCACUGAUUCAUAGUGAUGUUAUGAUAUAAUCUUAGUGAUAUUUAUAAACAGGACCGGGUCAAUUAUUA [JR_SSTryptoB_Sub026] | 221 nM | 173 nM | 192 nM | 166 nM | 162 nM
UUUGGAUUGCGCUAAGAGUGCAAGCGCCAACGAGGACCGGUACGGCCGCCACUCGCGGAGGAGUCCAGUGAUGUUGGACGGCCCG [Orbile] | 326 nM | 222 nM | 601 nM | 178 nM | 183 nM
UUUUAAAUAUCUGAUACCAGAGAAAAUAUAUGUAGUGAUGUUAUAUACAAAAUAAAUAAGCUCCCUUGGCAGCAGUAUUAAUUUU [AstrosExyTheB#1] | 655 nM | 622 nM | 808 nM | 688 nM | 610 nM
UUUUAAAUGUCUGAUACCAGAGAAAAUAUAUGUAGUGAUGUUACAUACAAAUUUAAUAAGCUCCCUUGGCAGCAGUAUGAAUUUU [AstrosExc-TheB#15] | 44.6 nM | 66.7 nM | 55.9 nM | 67 nM | 49.5 nM
UUUUAAUGCAGUGAUGUUGCUAAUAAAACAGAGGAUAUGCAUGGAAGCAGAAGGCUGAAAUAUUAUACUUUAAUAAAUUAUAUUU [JR_SSFMNA_Sub010] | 71.2 nM | 116 nM | 78.8 nM | 119 nM | 66.6 nM
UUUUAAUGCAGUGAUGUUGCUAAUAAAACAGAGGAUAUGCAUGGAAGCAGAAGGCUGAUAUAUUAUACUUUAAUAUAUUAUAUUU [JR_SSFMNA_Sub011] | 77.8 nM | 147 nM | 121 nM | 188 nM | 86.6 nM
UUUUAUUAGUAGUGAUGUUACUAAACUGAAGGAGCGAGAUUUAACUCAGGUAGGUCGCAGAAAAUCAAUUAAUUUAUAAAUUAAA [JR_SSArginiA_Sub011] | 97.7 nM | 87.8 nM | 99.8 nM | 87.2 nM | 94.6 nM
UUUUUAUGCAGUGAUGUUGCUAAUAUAACAGAGGAUAUGCAUUAAAGCAGAAGGCUGAAAUACUAUACUUUAAUAAAUUAAAUUU [JR_SSFMNA_Sub013] | 94.2 nM | 136 nM | 107 nM | 144 nM | 82.7 nM
UUUUUGGAGAAUUAUAGUGAUGUUAUGAAGGAGGAUAUCUGGAGAUGGAGAAGGCCUAGUGGCUCAGCCCUGGAGGGUGGGUGGG [ExFMNA.aB] | 822 nM | 562 nM | 705 nM | 556 nM | 572 nM
